Data set [1] has as its system caudal trigeminal nucleus c-fos. The data set can be described thus: c-fos immunostaining of caudal trigeminal nucleus after recurrent spreading depression. The format is in vivo, rat. The settings on record: −4.5 mm from the obex, n=6/group. The text has this: Induction of recurrent SD followed previously published aseptic techniques from the inventors' laboratory (8, 13, 21, 25, 26, 51) (FIG. 4). Animals were anesthetized with 5% isoflurane, which was later reduced to 1.5% inhalational isoflurane in oxygen during procedures and followed previous procedures for assessing the impact of recurrent SD after pretreatment with N2B IGF-1 (21, 51)).
One day after N2B treatment and surgery, animals were again anesthetized with 5% isoflurane in oxygen that was reduced to 1.5% during recordings of CSD followed by procedures to induce recurrent CSD every 10 minutes for 90 minutes as previously described (FIG. 4) (21,51). […]
For c-fos image analyses, the 5× digitally stored TIFF files were electronically enlarged to facilitate cell counting to 6,400×6,400 pixels and adjusted for brightness/contrast equivalently between experimental group pairs using Image J (v. 1.43i; National Institutes of Health public access). c-fos labeled nuclei were manually counted by an observer blinded to experimental conditions. Only intensely stained, round or oval-shaped nuclei were counted in lamina I-II [obex through −6.0 mm, recording the average of n=3 sections (technical replicates) at each anatomical level per animal (n≥5 biological replicates/group)]. […]

The nature of data set [2]: Blood glucose after nose-to-brain (N2B) delivery of IGF-1. The format is in vivo, Wistar rats. The settings on record: for blood glucose level: n=4/group; for hypoglycemia: after nasal (N2B) delivery of IGF-1. How it is done:
(§1) N2B delivery of 150 μg human recombinant IGF-1 (#191-G1; R&D Systems, Minneapolis, MN) in 50 μL sodium succinate buffer followed the previously described approach (21,51) that was based on the techniques of Liu and coworkers (24) in the recording laboratory under isoflurane anesthesia with spontaneous ventilation.
Blood glucose was monitored in a subset of animals. Immediately before N2B treatments and while anesthetized, blood glucose was sampled at time zero using a sterile, 27 gauge hypodermic needle to puncture the tip of the tail. A second drop of blood from punctures was used for glucose measurements (Contour Next EZ; Ascensia Diabetes Care, US, Inc.; Parsippany, NJ). After N2B treatments (IGF-1 or vehicle), animals were briefly re-anesthetized and maintained as above for each blood draw done over time (i.e., 0.3, 3, 6, and 24 hours).

Data set [3] concerns rat hippocampal brain slice cultures. The settings on record: cited from earlier work.
Data set [4] concerns trigeminal ganglion malondialdehyde. The data set can be described thus: Malondialdehyde (oxidative stress) immunostaining of trigeminal ganglion after recurrent spreading depression. In kind it is in vivo, rat. Here is the method:
as §1
(§2) Induction of recurrent SD followed previously published aseptic techniques from the inventors' laboratory (8, 13, 21, 25, 26, 51) (FIG. 4). […]
(§3) Imaging was performed using a Photometrics self-calibrating digital camera QuantEM-512SC camera (500×500 pixels; Photometrics, Tucson, AZ) run on MetaMorph software (v. 7.0.4; Molecular Devices, Sunnyvale, CA) under blinded conditions (as previously described (13, 20-22). Image exposure, camera gain and thresholding were uniformly set (i.e., equivalently for experimental and sham groups for each imaging metric (i.e., MDA, CGRP and c-fos). Resultant images were digitally stored as TIFF files for subsequent analyses that continued under blinded conditions where image integrated fluorescence intensity was registered using MetaMorph software for MDA and CGRP.
(§4) Images of MDA and CGRP were analyzed while blinded and later decoded to ratios of experimental/sham image integrated optical intensity, a sensitive metric that not only accounts for the area but also the pixel intensity of related image fluorescence. […]

Data set [5] has as its system trigeminal ganglion CGRP. The data set can be described thus: CGRP immunostaining of trigeminal ganglion after recurrent spreading depression. The format is in vivo, rat. The note with it: n=5/group. Here is the method:
as §1, §2, §3, §4

“And” between values parts separate entries of the source, which are not always exact repeats. Identical values can stand only once. “Also recorded” adds a separate entry of the source.

In the case of “IGF-1: human recombinant IGF-1 (#191-G1; R&D Systems), 150 μg in 50 μL sodium succinate buffer, delivered nose-to-brain”, the “relative c-fos positive cell counts (sham set to 1.00)” value in data set [1] is 0.52±0.11. Moreover, the blood glucose level worked out at 196 ± 22 mg/dL in data set [2] (0.3-hour after N2B IGF-1 150 μg, non-fasted rats); 114 ± 14 mg/dL in data set [2] (3.0-hour after N2B IGF-1 150 μg); 134 ± 7 mg/dL in data set [2] (6.0-hour after N2B IGF-1 150 μg); 150 ± 40 mg/dL in data set [2] (24-hour after N2B IGF-1 150 μg). The hypoglycemia entry in data set [2] is listed as “did not induce hypoglycemia; also recorded: did not see evidence of hypoglycemia; also recorded: did not evoke hypoglycemia; also recorded: no evidence of hypoglycemia; also recorded: did not cause hypoglycemia; also recorded: no hypoglycemic effect; also recorded: did not trigger hypoglycemia”; in data set [2] (listed as insulin-like growth factor-1) it was “no impact on blood glucose levels occurred”. The “lowest IGF-1 glucose-related level seen” value in data set [2] (normal range for Wistar rats 85-132 mg/dL, control 132 mg/dL at time 0) was 114 mg/dL. Moreover, in data set [3] (brain slice cultures in vitro), the “oxidative stress from menadione exposure” value was “significantly reduced”. Besides, the “spreading depression in slice cultures” value in data set [3] (rat hippocampal brain slice cultures) was “significantly inhibited spreading depression”. Further, the “reduction of malondialdehyde levels in the trigeminal ganglion after recurrent SD” value in data set [4] (N2B IGF-1 150 μg a day before 90 minutes of recurrent SD, p<0.001) is 82% and 83%. Further, in data set [4] (n=5/group), the “natural logarithm ratio (IGF-1/sham) of MDA immunostaining after recurrent SD” value was −1.37±0.40. Further, in data set [5], the “log-ratio (IGF-1/sham) of CGRP immunostaining after recurrent CSD” value is listed as −0.90±0.15.

Source of the values: patent publication US12324827B2, “Combination therapy for the treatment of migraines” (The University of Chicago, priority 2019, dated 2025).
